Values quoted from earlier work as cited in paper PMC3039521.

Molecular target: Abl P-x-L-P-x-K motif (UniProt P00519)

Crk SH3N (from UniProt P46108)
Kd: 1000 nM
